We go through 1 substance from paper PMC3887004.

The assay concerns the target F-actin (actin from rabbit skeletal muscle) (rabbit) (UniProt P68135).

The substance “Myo IX headΔext (motor domain lacking the N-terminal extension) (domain or fragment)” yielded a run length λ of Qdot-labelled myosin moving along immobilised actin filaments (stepping assay) of 2.9 µm.
